# Earlier results as cited in publication PMC6522352.
# Biological target: IL-9 (Mus musculus) (UniProt P15247)
# Sequence of UniProt P15247 (P15247 19-144): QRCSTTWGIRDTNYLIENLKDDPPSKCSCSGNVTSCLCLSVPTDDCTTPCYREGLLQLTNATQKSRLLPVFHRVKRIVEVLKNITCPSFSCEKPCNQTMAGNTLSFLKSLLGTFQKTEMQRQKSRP
substance,measurement,value
IL-9 receptor alpha (from UniProt Q01114),Kd,0.1 nM
